This is an account of results in publication PMC13108886, “Constitutively active RAS prolongs Cdc42 signalling, while MAPK signalling is attenuated during fission yeast mating” (PLOS Genetics, 2026).

For assay [1], the target named is T1, GTP-loaded Ras1.G17V (1-172) (Schizosaccharomyces pombe (fission …, UniProt P08647 1-172, G17V)).
T1 construct: stopped with 20.5 mM MgCl2) just before the pull-down; Cloned in the vector pLEICS1; also called Ras1.G17V^GTP; source: E. coli BL21 Rosetta, purified (Ni Sepharose 6 Fast Flow), loaded with GTP
T1 sequence (looked up): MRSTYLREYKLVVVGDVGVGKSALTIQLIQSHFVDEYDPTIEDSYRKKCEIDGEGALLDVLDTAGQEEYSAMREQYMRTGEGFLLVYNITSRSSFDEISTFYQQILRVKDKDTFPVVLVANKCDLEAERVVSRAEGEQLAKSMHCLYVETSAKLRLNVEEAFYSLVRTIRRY
Put plainly: pull-down; GST-Byr2 (65-180) or GST-Scd1 (760-872) on glutathione sepharose 4B beads, GTP-loaded Ras1.G17V (1-172) added; buffer A (20 mM Tris-Cl pH 7.5, 100 mM NaCl, 5 mM MgCl2, 1 mM beta-mercaptoethanol), 4 C, 30 min; bound fraction on SDS-PAGE, InstantBlue stain. To be noted: both partners purified.

Assay [2] concerns the target T1, GTP-loaded Ras1.G17V (1-172). The assay can be described thus: pull-down; competition: GST-Byr2 (65-180) on glutathione beads, GTP-loaded Ras1.G17V (1-172) with or without the Scd1 (760-872) fragment; buffer A, 4 C, 30 min; Ras1.G17V band on the stained gel quantified with Fiji. To be noted: both partners purified.

B1: GST-Scd1 (760-872) (domain or fragment, UniProt P40995 760-872, looked up)
chain: SSSTSTSLSVRNTTNVKIRLRLHEVSLVLVVAHDITFDELLAKVEHKIKLCGILKQAVPFRVRLKYVDEDGDFITITSDEDVLMAFETCTFELMDPVHNKGMDTVSLHVVVYF
notes: Cloned in the vector pLEICS4; also called GST-Scd1-PB1; Scd1-PB1; source: E. coli BL21 Rosetta, purified (glutathione sepharose 4B), kept on the beads; not shown: GST, N-terminal, kept
As for B1, the binding result in assay [1] was “binds”.

B2: Scd1 (760-872) fragment (domain or fragment, UniProt P40995 760-872, looked up)
chain: B1 chain
notes: legend and methods say the fragment freed of GST; also called Scd1-PB1; source: E. coli BL21 Rosetta; not shown: GST, N-terminal, cleaved
As to B2, the binding result in assay [2] was “binds”.

B3: GST-Byr2 (65-180) (domain or fragment, UniProt P28829 65-180, looked up)
chain: REFPRPCILRFIACNGQTRAVQSRGDYQKTLAIALKKFSLEDASKFIVCVSQSSRIKLITEEEFKQICFNSSSPERDRLIIVPKEKPCPSFEDLRRSWEIELAQPAALSSQSSLSP
notes: Cloned in the vector pLEICS4; also called GST-Byr2-RBD; Byr2-RBD; source: E. coli BL21 Rosetta, purified (glutathione sepharose 4B), kept on the beads; not shown: GST, N-terminal, kept
As for B3, the binding result in assay [1] is “binds”.
